Assay results reported in patent US6908994 (TEXAS A AND M UNIVERSITY SYSTEM, dated 2005).
Where two headings read alike, the source gives them in different places.

Key:
Collagen type IV (CIV) [1] = test: cell-based or functional assay
[2] = molecular target: Mouse laminin (isolated from the EHS-sarcoma) (mouse) (UniProt P19137); test: cell-based or functional assay
[3] = molecular target: Ace of E. faecalis strain OG1RF (native; on 46°C grown cells and in mutanolysin extracts) (Enterococcus faecalis strain OG1RF); test: cell-based or functional assay
Collagen type I (CI) = test: ELISA, 10 µg immobilised CI, bound His-tagged Ace A detected with penta-His monoclonal antibody, OD450
[4] = molecular target: Mouse laminin (isolated from the EHS-sarcoma) (mouse) (UniProt P19137); test: ELISA, 10 µg immobilised LN, bound His-tagged Ace A detected with penta-His monoclonal antibody, OD450
[5] = molecular target: Ace of E. faecalis strain OG1RF (native; on 46°C grown cells and in mutanolysin extracts) (Enterococcus faecalis strain OG1RF); test: cell-based or functional assay; remark: listed apart in the source
[6] = molecular target: Ace of E. faecalis strain MC02152 (native; on cells and in mutanolysin extracts) (Enterococcus faecalis strain MC02152); test: cell-based or functional assay
[7] = molecular target: Ace of E. faecalis strain V583 (native; on cells and in mutanolysin extracts) (Enterococcus faecalis strain V583); test: cell-based or functional assay
[8] = molecular target: Bovine serum albumin (BSA) (bovine) (UniProt P02769); test: cell-based or functional assay
Collagen type IV (CIV) [9] = test: cell-based or functional assay; remark: listed apart in the source
[10] = molecular target: T1, Bovine Type I collagen (Collagen Corp.), immobilised on a CM5 chip (bovine, UniProt P02453 162-1217; P02465 80-1117); test: SPR (BIAcore 1000), Scatchard analysis of equilibrium responses, 1-70 µM Ace A over immobilised collagen; three measurements
T1 construct: Bought, predissolved in 0.1 M HCl

[11] = molecular target: Mouse laminin (isolated from the EHS-sarcoma) (mouse, UniProt P19137 25-3083; P02469 22-1786; P02468 34-1607); test: cell-based or functional assay

Bovine serum albumin (BSA) (bovine), sequence (P02769 25-607 limits assumed): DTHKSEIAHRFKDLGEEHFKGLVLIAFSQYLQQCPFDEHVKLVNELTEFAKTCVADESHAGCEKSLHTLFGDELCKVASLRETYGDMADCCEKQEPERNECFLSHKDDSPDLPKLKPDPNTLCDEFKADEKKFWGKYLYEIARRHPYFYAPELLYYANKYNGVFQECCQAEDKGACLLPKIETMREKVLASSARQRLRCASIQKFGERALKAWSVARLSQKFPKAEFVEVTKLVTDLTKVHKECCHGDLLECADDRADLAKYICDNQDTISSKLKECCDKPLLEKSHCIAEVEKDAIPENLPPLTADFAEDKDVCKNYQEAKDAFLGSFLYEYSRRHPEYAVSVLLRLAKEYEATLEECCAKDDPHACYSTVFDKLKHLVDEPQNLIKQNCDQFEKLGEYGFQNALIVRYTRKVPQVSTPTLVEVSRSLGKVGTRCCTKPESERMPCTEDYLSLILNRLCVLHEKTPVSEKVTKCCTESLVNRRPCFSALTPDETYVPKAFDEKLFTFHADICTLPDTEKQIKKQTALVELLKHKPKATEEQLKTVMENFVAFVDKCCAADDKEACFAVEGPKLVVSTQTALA
T1 sequence (P02453 162-1217 limits assumed, chain 1 of 2): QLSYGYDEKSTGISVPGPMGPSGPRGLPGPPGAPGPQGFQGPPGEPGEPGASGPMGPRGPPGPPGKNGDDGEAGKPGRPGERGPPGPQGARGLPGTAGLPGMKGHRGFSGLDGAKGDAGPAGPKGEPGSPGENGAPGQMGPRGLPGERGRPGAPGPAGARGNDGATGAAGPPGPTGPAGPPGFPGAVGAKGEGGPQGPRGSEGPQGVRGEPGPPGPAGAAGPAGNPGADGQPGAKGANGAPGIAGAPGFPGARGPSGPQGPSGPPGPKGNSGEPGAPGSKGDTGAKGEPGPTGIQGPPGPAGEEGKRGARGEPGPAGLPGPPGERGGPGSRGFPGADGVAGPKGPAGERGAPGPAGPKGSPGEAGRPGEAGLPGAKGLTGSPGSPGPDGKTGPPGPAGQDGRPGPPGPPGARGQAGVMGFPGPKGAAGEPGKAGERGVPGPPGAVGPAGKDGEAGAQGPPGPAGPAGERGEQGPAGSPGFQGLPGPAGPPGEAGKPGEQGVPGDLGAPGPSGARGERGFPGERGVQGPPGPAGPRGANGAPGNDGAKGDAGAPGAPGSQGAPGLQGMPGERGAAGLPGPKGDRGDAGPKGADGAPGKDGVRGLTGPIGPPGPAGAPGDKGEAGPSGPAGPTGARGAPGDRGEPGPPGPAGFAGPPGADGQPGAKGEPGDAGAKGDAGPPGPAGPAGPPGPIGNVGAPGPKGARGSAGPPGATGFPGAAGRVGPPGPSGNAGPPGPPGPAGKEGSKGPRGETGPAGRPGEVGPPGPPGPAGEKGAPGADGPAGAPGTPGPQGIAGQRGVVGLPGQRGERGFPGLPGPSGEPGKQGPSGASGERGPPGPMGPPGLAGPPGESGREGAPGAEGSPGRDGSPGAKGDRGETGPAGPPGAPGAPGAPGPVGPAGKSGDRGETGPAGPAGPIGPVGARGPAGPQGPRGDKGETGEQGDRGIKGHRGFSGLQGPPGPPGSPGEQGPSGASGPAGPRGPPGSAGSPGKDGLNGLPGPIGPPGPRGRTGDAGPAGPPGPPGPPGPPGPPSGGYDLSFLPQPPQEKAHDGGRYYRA
T1 sequence (P02465 80-1117 limits assumed, chain 2 of 2): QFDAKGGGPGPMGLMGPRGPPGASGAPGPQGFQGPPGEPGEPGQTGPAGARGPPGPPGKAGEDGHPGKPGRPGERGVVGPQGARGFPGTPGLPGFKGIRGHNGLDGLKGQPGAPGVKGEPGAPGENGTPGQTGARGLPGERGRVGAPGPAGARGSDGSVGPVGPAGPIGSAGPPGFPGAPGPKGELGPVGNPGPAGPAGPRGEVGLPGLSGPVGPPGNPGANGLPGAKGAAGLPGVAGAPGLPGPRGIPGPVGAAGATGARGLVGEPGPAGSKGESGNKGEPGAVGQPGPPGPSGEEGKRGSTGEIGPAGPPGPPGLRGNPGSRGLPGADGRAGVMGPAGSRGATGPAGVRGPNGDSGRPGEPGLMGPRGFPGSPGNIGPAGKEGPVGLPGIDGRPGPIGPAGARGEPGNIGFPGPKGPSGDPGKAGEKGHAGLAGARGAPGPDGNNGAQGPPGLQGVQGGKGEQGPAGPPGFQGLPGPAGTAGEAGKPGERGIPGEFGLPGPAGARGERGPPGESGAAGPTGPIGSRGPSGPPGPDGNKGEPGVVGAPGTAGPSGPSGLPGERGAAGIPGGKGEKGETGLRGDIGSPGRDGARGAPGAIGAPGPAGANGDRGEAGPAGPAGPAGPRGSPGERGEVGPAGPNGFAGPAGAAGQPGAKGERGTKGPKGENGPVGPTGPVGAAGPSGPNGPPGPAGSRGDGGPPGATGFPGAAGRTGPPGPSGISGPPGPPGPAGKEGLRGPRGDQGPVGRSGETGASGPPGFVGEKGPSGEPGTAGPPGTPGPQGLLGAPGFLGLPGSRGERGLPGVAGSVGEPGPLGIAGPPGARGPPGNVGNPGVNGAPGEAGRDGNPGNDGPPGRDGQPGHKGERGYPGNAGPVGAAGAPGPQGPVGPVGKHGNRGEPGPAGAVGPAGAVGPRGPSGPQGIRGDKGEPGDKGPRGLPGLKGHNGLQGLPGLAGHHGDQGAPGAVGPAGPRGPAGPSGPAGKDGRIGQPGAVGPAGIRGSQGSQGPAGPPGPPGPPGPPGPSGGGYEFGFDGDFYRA

Ace of E. faecalis strain MD9 (mutanolysin extract)
% adherence of 46°C grown MD9 to CIV (Collagen type IV (CIV) [1]): > 20% | % adherence of 46°C grown MD9 to LN [2]: > 20%

Ace of E. faecalis strain JH2-2 (mutanolysin extract)
% adherence of 46°C grown JH2-2 to CIV (Collagen type IV (CIV) [1]): > 20% | % adherence of 46°C grown JH2-2 to LN [2]: > 20%

IgGs purified from pooled normal human sera collected from healthy volunteers (antibody)
% of OG1RF cells bound to BSA; NHS IgG 0.1 mg/ml (% of cells bound) [3]: 0.9 | % of OG1RF cells bound to BSA; NHS IgG 1 mg/ml (% of cells bound) [3]: 0.7 | % of OG1RF cells bound to BSA; NHS IgG 2 mg/ml (% of cells bound) [3]: 0.7 | % of OG1RF cells bound to BSA; NHS IgG 4 mg/ml (% of cells bound) [3]: 0.8 | % of OG1RF cells bound to CIV; NHS IgG 0.1 mg/ml (% of cells bound) [3]: 24.8 | % of OG1RF cells bound to CIV; NHS IgG 1 mg/ml (% of cells bound) [3]: 25.6 | % of OG1RF cells bound to CIV; NHS IgG 2 mg/ml (% of cells bound) [3]: 24 | % of OG1RF cells bound to CIV; NHS IgG 4 mg/ml (% of cells bound) [3]: 25.6 | % of OG1RF cells bound to LN; NHS IgG 0.1 mg/ml (% of cells bound) [3]: 31.5 | % of OG1RF cells bound to LN; NHS IgG 1 mg/ml (% of cells bound) [3]: 31.3 | % of OG1RF cells bound to LN; NHS IgG 2 mg/ml (% of cells bound) [3]: 31.3 | % of OG1RF cells bound to LN; NHS IgG 4 mg/ml (% of cells bound) [3]: 31.4

Recombinant Ace A domain of E. faecalis OG1RF (His-tagged, pBAD/HisA, TX5254)
EC50 (read off the curve) (Collagen type I (CI)): 10 µM | EC50 (read off the curve) [4]: 7 µM

Ace of E. faecalis strain END6 (mutanolysin extract)
% adherence of 46°C grown END6 to CIV (Collagen type IV (CIV) [1]): > 20% | % adherence of 46°C grown END6 to LN [2]: > 20%

Preimmune rabbit serum and IgGs purified from it (Example 2) (antibody)
% of OG1RF cells bound to BSA; PI IgG 0.001 µg/ml (% of cells bound) [5]: 0.7 | % of OG1RF cells bound to BSA; PI IgG 0.01 µg/ml (% of cells bound) [5]: 0.1 | % of OG1RF cells bound to BSA; PI IgG 0.1 µg/ml (% of cells bound) [5]: 0.6 | % of OG1RF cells bound to BSA; PI IgG 1 µg/ml (% of cells bound) [5]: 0.8 | % of OG1RF cells bound to BSA; PI IgG 10 µg/ml (% of cells bound) [5]: 0.6 | % of OG1RF cells bound to BSA; PI IgG 100 µg/ml (% of cells bound) [5]: 0.6 | % of OG1RF cells bound to CIV; PI IgG 0.001 µg/ml (% of cells bound) [5]: 30.3 | % of OG1RF cells bound to CIV; PI IgG 0.01 µg/ml (% of cells bound) [5]: 28.8 | % of OG1RF cells bound to CIV; PI IgG 0.1 µg/ml (% of cells bound) [5]: 28.9 | % of OG1RF cells bound to CIV; PI IgG 1 µg/ml (% of cells bound) [5]: 25.9 | % of OG1RF cells bound to CIV; PI IgG 10 µg/ml (% of cells bound) [5]: 26.6 | % of OG1RF cells bound to CIV; PI IgG 100 µg/ml (% of cells bound) [5]: 26 | % of OG1RF cells bound to LN; PI IgG 0.001 µg/ml (% of cells bound) [5]: 30.2 | % of OG1RF cells bound to LN; PI IgG 0.01 µg/ml (% of cells bound) [5]: 31.4 | % of OG1RF cells bound to LN; PI IgG 0.1 µg/ml (% of cells bound) [5]: 29.1 | % of OG1RF cells bound to LN; PI IgG 1 µg/ml (% of cells bound) [5]: 26.4 | % of OG1RF cells bound to LN; PI IgG 10 µg/ml (% of cells bound) [5]: 28.3 | % of OG1RF cells bound to LN; PI IgG 100 µg/ml (% of cells bound) [5]: 32 | % of MC02152 cells bound to BSA; PI IgG 20 µg/ml (% of cells bound) [6]: 0.5 | % of MC02152 cells bound to CIV; PI IgG 20 µg/ml (% of cells bound) [6]: 26.5 | % of MC02152 cells bound to LN; PI IgG 20 µg/ml (% of cells bound) [6]: 23.5 | % of V583 cells bound to BSA; PI IgG 20 µg/ml (% of cells bound) [7]: 0.6 | % of V583 cells bound to CIV; PI IgG 20 µg/ml (% of cells bound) [7]: 33.6 | % of V583 cells bound to LN; PI IgG 20 µg/ml (% of cells bound) [7]: 27.6

Ace of E. faecalis strain V583 (native; on cells and in mutanolysin extracts)
% of V583 cells bound to BSA; no IgG (% of cells bound) [8]: 0.7 | % adherence of 46°C grown V583 to CIV (Collagen type IV (CIV) [1]): > 20% | % of V583 cells bound to CIV; no IgG (% of cells bound) (Collagen type IV (CIV) [1]): 38.1 | % adherence of 46°C grown V583 to LN [2]: > 20% | % of V583 cells bound to LN; no IgG (% of cells bound) [2]: 29.4

Ace of E. faecalis strain MC02152 (native; on cells and in mutanolysin extracts)
% of MC02152 cells bound to BSA; no IgG (% of cells bound) [8]: 0.6 | % adherence of 46°C grown MC02152 to CIV (Collagen type IV (CIV) [1]): > 20% | % of 37°C grown MC02152 cells bound to CIV (Collagen type IV (CIV) [1]): 8.9% | % of 46°C grown MC02152 cells bound to CIV (Collagen type IV (CIV) [1]): 38% | % of MC02152 cells bound to CIV; no IgG (% of cells bound) (Collagen type IV (CIV) [1]): 27.7 | % adherence of 46°C grown MC02152 to LN [2]: > 20% | % of 37°C grown MC02152 cells bound to LN [2]: 7.1% | % of 46°C grown MC02152 cells bound to LN [2]: 41% | % of MC02152 cells bound to LN; no IgG (% of cells bound) [2]: 26.7

Ace of E. faecalis strain OG1RF (native; on 46°C grown cells and in mutanolysin extracts)
% of OG1RF cells bound to CIV; no IgG (% of cells bound) (Collagen type IV (CIV) [9]): 29.6 | % of OG1RF cells bound to CIV; no IgG (% of cells bound) (Collagen type IV (CIV) [1]): 27.7 | fold decrease of adherence to CIV in ace mutant TX5256 against OG1RF (Collagen type IV (CIV) [1]): 27.4 fold

B1: Recombinant E. faecalis EF1 Ace A domain (N-terminal His6-tag fusion, from pQE-30) (other)
chain: MRGSHHHHHHGSELSKSSIVDKVELDHTTLYQGEMTSIKVSFSDKENQKIKPGDTITLTLPDELVGMTENDGSPRKINLNGLGEVFIYKDHVVATFNEKVESLHNVNGHFSFGIKTLITNSSQPNVIETDFGTATATQRLTIEGVTNTETGQIERDYPFFYKVGDLAGESNQVRWFLNVNLNKSDVTEDISIADRQGSGQQLNKESFTFDIVNDKETKYISLAEFEQQGYGKIDFVTDNDFNLRFYRDKARFTSFIVRYTSTITEAGQHQATFENSYDINYQLNNQDATNEKNTSQVKNVFVEGEASGNQNVEMPTEESLDIPLETIEEWEPKTPTSEQATETSEKTD
notes: Residues 32-367 are counted from nucleotides 94-1101; also called recombinant Ace A domain
Kd [10]: 48 µM

B2: Ace of E. faecalis strain OG1RF (native; on 46°C grown cells and in mutanolysin extracts) (other)
chain: ELSKSSIVDKVELDHTTLYQGEMTSIKVSFSDKENQKIKPGDTITLTLPDALVGMTENDGSPRKINLNGLGEVFIYKDHVVATFNEKVESLHNVNGHFSFGIKTLITNSSQPNVIETDFGTATATQRLTIEGVTNTETGQIERDYPFFYKVGDLAGESNQVRWFLNVNLNKSDVTEDISIADRQGSGQQLNKESFTFDIVNDKETKYISLAEFEQQGYGKIDFVTDNDFNLRFYRNKARFTSFIVRYTSTITEAGQHQATFENSYDINYQLNNQDATNEKNTSQVKNVFVEGEASGNQNVEMPTEESLDIPLETIDEWEPKTPTSEQATETSEKTGATETAESSQPEVHVSPTEEENPDEGGTLGTIEPIIPEKPSVTTEENGVTETAEGSQPEVHVSPTEEENPDESETLGTITPIIPEKPSVTTEENGVTETAEGSQPEVHVSPTEEENPDESETLGTITPIIPEKPSVTTEENGATETAESSQPEVHVSPAEEENPDESETLGTITPIIPEKPSVTTEENGTTETAESSQPEVHVSPTEEENLDESETLGTIEPIIPEKPSVTTEENGTTETAESSQPEVHVSPTKEITTTEKKQPSTETTVEKNKNVTSKNQPQILNAPLNTVKNEGSPQLAPQLLSEPIQKLNEANGQRELPKT
fold decrease of adherence to LN in ace mutant TX5256 against OG1RF [11]: 32.9 fold
